Measured values published in patent US20190375786A1, “STABLE PEPTIDES AND METHODS OF USE THEREOF” (Fred Hutchinson Cancer Research Center, priority 2016, published 2019).

Assay: Resistance to reduction by DTT, RP-HPLC
Assay type: physicochemical
Conditions: 10 mM DTT; HPLC vs non-reduced peptide
Procedure, shortened: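 Peptide (12.5 μg from a 2 mg/ml stock, or 0.015 mM final in PBS) was held 30 min at room temperature with or without 10 mM DTT. Reduced and non-reduced forms were compared by C-18 RP-HPLC using a 5–45% acetonitrile/0.1% TFA gradient over 10 min, with detection at 214 and 280 nm.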

GSPDEYIERAKECCKKQDIQCCLRIFDESKDPNVMLICLFCW [SEQ ID NO: 43]
resistance to reduction by DTT (in words): partially resistant
